# According to PMC9065035, “Structural basis for the synthesis of the core 1 structure by C1GalT1” (Nature Communications, 2022):
# Ends that are not written are not given here. * marks the point of attachment. αGalNAc = CC(=O)N[C@@H]1[C@@H](O)[C@@H](O)[C@@H](CO)O[C@@H]1*
# B1: APDT*RP glycopeptide (MUC1 tandem repeat epitope with alpha-GalNAc on Thr) (peptide)
# peptide: APDT(αGalNAc)RP-NH2
# modifications: N-terminus assumed
# SMILES: CC(=O)N[C@H]1[C@@H](O[C@H](C)[C@H](NC(=O)[C@H](CC(=O)O)NC(=O)[C@@H]2CCCN2C(=O)[C@H](C)N)C(=O)N[C@@H](CCCNC(=N)N)C(=O)N2CCC[C@H]2C(N)=O)O[C@H](CO)[C@H](O)[C@@H]1O
# notes: source: synthetic peptide (Fmoc solid phase, Rink Amide MBHA resin, HPLC)
# B2: DmC1GalT1^S73-Q388 (Drosophila melanogaster C1GalT1, residues S73-Q388) (enzyme)
# chain: not shown
# modifications: N-glycans trimmed with Endoglycosidase-H (expressed with kifunensine)
# notes: C1GalT1 (core 1 synthase) of Drosophila melanogaster, residues S73-Q388; Expressed with the honey bee mellitin secretion signal in front (pFastBac1-mellitin-DmC1GalT1-6His); two molecules in the asymmetric unit arranged as a homodimer; also called truncated version of DmC1GalT1; mellitin-DmC1GalT1-6His; source: High Five insect cells (baculovirus), secreted, purified (His-Trap, Endo-H, MBP-Trap, …)
# B3: P7 (YADT*GPF) glycopeptide (peptide)
# peptide: YADT(αGalNAc)GPF-NH2
# notes: designed acceptor glycopeptide; Made on Rink Amide resin, so a C-terminal amide is to be expected; source: synthetic peptide (solid-phase, Rink Amide MBHA resin, HPLC purified)
# B4: P7 glycopeptide YADT*GPF (GalNAc on Thr) (peptide)
# peptide: YADT(αGalNAc)GPF-NH2
# notes: Asp at -1; Tied to the name P7 by the text (Asp at -1; ITC was done with P4 and P7 only besides APDT*RP); Made on Rink Amide MBHA resin, so probably a C-terminal amide (surmised); source: synthetic peptide (solid-phase synthesis, HPLC purified)
# B5: P4 (PAAT*GPY) glycopeptide (peptide)
# peptide: PAAT(αGalNAc)GPY-NH2
# notes: as for B3
# B6: P4 glycopeptide PAAT*GPY (GalNAc on Thr) (peptide)
# peptide: PAAT(αGalNAc)GPY-NH2
# notes: Tied to the name P4 by the residues that the text names for P4 (Pro1, Ala2, Ala3, Thr4, Gly5, Tyr7); Made on Rink Amide MBHA resin, so probably a C-terminal amide (surmised); source: synthetic peptide (solid-phase synthesis, HPLC purified)
# B7: DmC1GalT1^S73-Q388 (Drosophila melanogaster C1GalT1, residues S73-Q388) (enzyme)
# chain: not shown
# modifications: N-glycans trimmed with Endo-H
# notes: C1GalT1 of Drosophila melanogaster, residues S73-Q388; Homodimer by SEC and in the crystal; also called truncated version of DmC1GalT1; DmC1GalT1-His
# Key:
# DmC1GalT1^T43-Q388 Y213A = DmC1GalT1^T43-Q388 Y213A (Drosophila melanogaster, UniProt Q7K237 43-388, Y213A); experiment: cell-based or functional assay
# DmC1GalT1^T43-Q388 R152A = DmC1GalT1^T43-Q388 R152A (Drosophila melanogaster, UniProt Q7K237 43-388, R152A); experiment: cell-based or functional assay
# DmC1GalT1^T43-Q388 Y325A = DmC1GalT1^T43-Q388 Y325A (Drosophila melanogaster, UniProt Q7K237 43-388, Y325A); experiment: cell-based or functional assay
# [1] = target: B2; experiment: crystal structure; 15 mg/mL DmC1GalT1^S73-Q388, 5 mM UDP, 2 mM MnCl2, 5 mM APDT*RP; space group P2_(1); 2.40 Å; settings: both partners purified
# [2] = target: the molecule itself; experiment: as above
# [3] = target: T1, DmC1GalT1^T43-Q388 (Drosophila melanogaster C1GalT1, residues T43-Q388) (Drosophila melanogaster); experiment: ITC; in the absence of UDP: 2 mM glycopeptide titrated into 60 µM DmC1GalT1^T43-Q388; 20 °C; 25 mM TRIS pH 7.5, 150 mM NaCl, 1 mM MnCl2; one-site model; duplicate; settings: both partners purified
# T1 construct: N-glycosylated (lower eukaryotes' C1GalT1 are N-glycosylated); The pHLSec vector (AgeI/KpnI) may leave a few vector residues at both ends (surmise); the SEC was done with the S73-Q388 construct; also called core 1/T-synthase; DmC1GalT1-His; source: HEK293, transfected (pHLSec), secreted, purified (His-Trap, Superdex 75)
# [4] = target: T1, DmC1GalT1^T43-Q388 (Drosophila …); experiment: ITC; under an excess of UDP: 2 mM (glyco)peptide titrated into DmC1GalT1^T43-Q388 (60 µM for APDT*RP and APDTRP, 50 µM for P4/P7); 20 °C; 25 mM TRIS pH 7.5, 150 mM NaCl, 1 mM UDP, 1 mM MnCl2; one-site model; duplicate; settings: both partners purified
# [5] = target: T2, Drosophila melanogaster C1GalT1, residues T43-Q388 (DmC1GalT1^T43-Q388) (Drosophila melanogaster, UniProt Q7K237 43-388); experiment: ITC; 2 mM glycopeptide titrated into 60 uM enzyme; no UDP: 25 mM TRIS pH 7.5, 150 mM NaCl, 1 mM MnCl2; 20 °C; one-site model; duplicate; settings: both partners purified
# T2 construct: N-glycosylated when made in HEK293; also called core 1/T-synthase; source: HEK293, transfected (pHLSec), secreted, purified (His-Trap, Superdex 75)
# [6] = target: T2, Drosophila melanogaster C1GalT1, …; experiment: ITC; 2 mM glycopeptide titrated into the enzyme (60 uM for APDT*RP, 50 uM for P4/P7); excess of UDP: 25 mM TRIS pH 7.5, 150 mM NaCl, 1 mM UDP, 1 mM MnCl2; 20 °C; one-site model; duplicate; settings: both partners purified
# [7] = target: the molecule itself; experiment: SEC; size exclusion chromatography of DmC1GalT1^S73-Q388 against protein markers of known molecular weight
# [8] = target: the molecule itself; experiment: crystal structure; DmC1GalT1^S73-Q388 (15 mg/mL) with 5 mM UDP, 2 mM MnCl2 and 5 mM APDT*RP; space group P21; 2.40 Å
binder,measurement,setting,value
B1,"glycosyltransferase activity relative to WT (UDP-Glo, 500 nM mutant, 500 μM UDP-Gal, 500 μM APDT*RP)",DmC1GalT1^T43-Q388 Y213A,25 fold decrease
same,"glycosyltransferase activity relative to WT (UDP-Glo, 500 nM mutant, 500 μM UDP-Gal, 500 μM APDT*RP)",DmC1GalT1^T43-Q388 R152A,15 fold decrease
same,"glycosyltransferase activity relative to WT (UDP-Glo, 500 nM mutant, 500 μM UDP-Gal, 500 μM APDT*RP)",DmC1GalT1^T43-Q388 Y325A,25 fold decrease
same,binding result,[1],binds
B2,stoichiometry N,[2],2
B3,Kd,[3],37.1 µM
same,stoichiometry N,[3],0.65
same,Kd,[4],60 µM
same,stoichiometry N,[4],1.5
B4,Kd,[5],37.1 µM
same,Kd,[6],60 µM
B5,Kd,[3],41 µM
same,stoichiometry N,[3],0.98
same,Kd,[4],60.4 µM
same,stoichiometry N,[4],0.88
B6,Kd,[5],41 µM
same,Kd,[6],60.3 µM
B7,stoichiometry N,[7],2
same,stoichiometry N,[8],2
